This note sets out measurements from patent publication US20160376333A1 (University of Washington, published 2016).

Assay [1] addresses T1, Epstein-Barr virus BHRF1 a.a. 1-161 with C-terminal avi-6his tag (Epstein-Barr virus).
T1 construct: also called EBV BHRF1; BHRF1-biotin
T1 chain: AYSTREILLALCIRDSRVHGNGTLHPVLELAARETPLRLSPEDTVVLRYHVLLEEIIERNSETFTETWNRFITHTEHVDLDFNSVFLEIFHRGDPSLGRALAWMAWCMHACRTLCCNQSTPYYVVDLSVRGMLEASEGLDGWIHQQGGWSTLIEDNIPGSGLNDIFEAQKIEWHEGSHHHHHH
The assay is described as follows: yeast display library, FACS sort at 400 nM BHRF1, deep sequencing.

Assay [2] concerns the target T1, Epstein-Barr virus BHRF1 a.a. 1-161 …. The assay is described as follows: yeast display library, FACS sort at 100 nM BHRF1, deep sequencing.

B1: Index 63 (designed binder)
chain: GDDKEKVKDYAKKRALEDVLRAKELAEKFIDEAKKSDHSKQNERQYIIAWIAFMLMAIGDVFNAMMEAKRLAELLKRLGLRRWEEAEEVKQKAEELAEEASRLLADLGKDFAKKIEQG
For the molecule B1, the Log2 enrichment ratio is -2.41 log2 in assay [1] and -2.52 log2 in assay [2].

B2: Index 44 (designed binder)
chain: GESGEWILEKTREKIERAIRDAEKKLRLIILLIRLFHPGDDLRALFAAIWIAAELELIGDIFNEKQDAEEKFKELLKKNQFRWEELWRKWLILEWIFQKARRKSKELAERAKKAFDFG
B2: the results for the Log2 enrichment ratio in assay [1] and in assay [2] were -3.16 log2 and -3.29 log2, respectively.

B3: Index 61 (designed binder)
chain: GEHLDELLLKLLWLAIQFAERAKLTIELWKLWGKITQSYNEWAEKAARDWIAAALMIIGDMFNHKQKAEEEAKKFAKKGLKRKEELEELLKKLEEFIKRAKKLIKETAQKHEEASKMG
In the case of B3, the Log2 enrichment ratio in assay [1] was -3.54 log2; in assay [2], -2.79 log2.

B4: Index 59 (designed binder)
chain: GITLEKLWKEAKEKIRKREDEALLKAEWFKKKANNVLDLNDMKAKMTAKWIALALMAIGDIFNYLLETEIKARLLVRLGLFRQEEAEKKKEEAKEEAIKSSRNIAKRGEEAAKQMEQG
B4: the Log2 enrichment ratio in assay [1] is -2.36 log2; in assay [2], -2.86 log2.

B5: Index 57 (designed binder)
chain: GDLKEELKERAKKIIRRALDEAKDAEDLIKKEAEKRYVTTEMATKFVAWWIAGALMIIGDIFNAAREVKERAEKALKWGVLSQDDIKELLLELENLEQEAKERAKEFGEKAEKFKKMG
Consider B5, for which the Log2 enrichment ratio was -2.85 log2 in assay [1] and -1.97 log2 in assay [2].

B6: Index 39 (designed binder)
chain: GKKYLKAARLALYLLWEAYLRGYLNLLLDELEAEFFDPHDERKIRYTINWIADALMLIGDLFNARLKMEKALWELKKEGKLREEDYEKMERLFRKWMELAFKWLEHFREMAEKAKKKG
As for B6, the Log2 enrichment ratio in assay [1] is -2.01 log2; in assay [2] it was -2.08 log2.

B7: Index 40 (designed binder)
chain: GNEAEQRREEFKEIMEKKKDEAEKKSEKIKRLALAFDLSDDDKTKATDEWIAISLEIIGDAFNFGEGLKDEAKRRKKRGLKRDEEVDKFEKIAEQAIEELRKLAEEADERGAKHLRDG
B7: the Log2 enrichment ratio in assay [1] is -4.69 log2; in assay [2], -3.7 log2.

B8: Index 60 (designed binder)
chain: GRQEDEIKDEATKRALEILQKLEQKVRKAKKFAKYGLLLQRWWAWITKVWIAAALDAIGDAFNLGEELKRILEELRRRGLSSEEKAQEIKNWIEWLEKWVAIMAKLFGEELEKQFKQG
As for B8, the Log2 enrichment ratio in assay [1] was -2.63 log2; in assay [2], -2.91 log2.

B9: Index 43 (designed binder)
chain: GKKAEEVLKEARKLHEAQLRYAYLMMKDWREKKQQEEKQTQREEKWTAWWIALMLMAIGDIFNFAEWAKEELDKLREKGLVEKKKAEEAKEKAEKLAEEASRRASEFAQLFAKWDKEG
In the case of B9, the Log2 enrichment ratio was -3.04 log2 in assay [1] and -2.44 log2 in assay [2].

B10: Index 38 (designed binder)
chain: GEKLKKLAEELEKKFRKLFFILKDELDRAYLIALKTQVQRQELARDTKLWIAVALMIIGDLFNAEIQGKELRDKLIKKNQVEEQKAKEFWKKWEEVKQRAEELIKKGGEMVERLADYG
Regarding B10, the Log2 enrichment ratio in assay [1] was -1.46 log2; in assay [2], -1.71 log2.

B11: Index 65 (designed binder)
chain: GNDLKDIARQIEEQAKKALDDMAKLIRELAEKAEKFYPSKDDIRRLTHYWIAAALMAIGDAFNRLQEARRRAEWLRKWGLRREEEAEKAKKEAEERHERAKELAHKMGDEMEEKLKRG
Turning to B11, the values for the Log2 enrichment ratio in assay [1] and in assay [2] were -2.31 log2 and -3.2 log2, respectively.

B12: Index 51 (designed binder)
chain: GWTALWLKDFTEQEARKKFREALYYGWMMAMRALEHQLQADELAMWTALWIAAMLEAIGDMFNDKLRAEKYALLLIWLNLYHKDIAEKWREEHEEKLKEALQEMFEAAEKFDKFAKFG
As for B12, the Log2 enrichment ratio in assay [1] was -2.43 log2; in assay [2], -2.53 log2.

B13: Index 49 (designed binder)
chain: GWSKDWVLEWLREKLEEIDREALWKFILIWIEKMLGVDDDEQRRKDAAKWIAGSLEAIGDIFNAMMWAKRLLEWLEKANLVRREELEKAKQKAEELAKKAALRAAIYSKIAEEWLWKG
Take B13: the Log2 enrichment ratio in assay [1] is -1.22 log2; in assay [2], -2.7 log2.

B14: Index 48 (designed binder)
chain: GEKGKEKAQKFRDIIKDILEEAIRLAKDLAEDAKKFDLKLEKLLEATLKWIAAALMAIGDLFNFKDLAEKEVRERHDRGEISSDRRDKYEKEAREGADEAAKELSKLAKIAEKKILEG
As for B14, the Log2 enrichment ratio in assay [1] was -2.33 log2; in assay [2] it was -2.8 log2.

B15: Index 46 (designed binder)
chain: GRDGERVVKWAKNQHENTVDEAKDKMDNQEDEMRKKNADDEKLRKETHKWIAFALEAIGDVFNDAMQAFELLERFKKFGQQEQKKLDEFKEKVERLAREASRKLTYLGKRFALDIESG
B15: the Log2 enrichment ratio was -3.6 log2 in assay [1] and -3.41 log2 in assay [2].

B16: Index 53 (designed binder)
chain: GHVAEEEIRRFLRKAEKVLQEARRKMEKRRREAEEHDTTTWLLARGTIEWIADALMLIGDAFNFRREAYIRGELYKKFGLIREDDLKDRLKEADQRLDEFAKKMALFGLELHLRLREG
Consider B16, for which the Log2 enrichment ratio in assay [1] is 0.4 log2; in assay [2], -0.29 log2.

B17: Index 64 (designed binder)
chain: GLSGDDAEDFARQEIEKRAREAEEKARKLIWLASKYDAKREEALKFHLRWIAFALMMIGDAFNAEEIAREMLEIARELGLTREEEAKEKLEKIRKKETEASKKMAERGRRLDNQANNG
Consider B17, for which the Log2 enrichment ratio in assay [1] was -1.68 log2; in assay [2], -3.51 log2.

B18: Index 50 (designed binder)
chain: GKRAEELREEAEERAKEAFKETEQKLREVEERSRQTLARDEELRKAALLWIAAALMGIGDLFNKKEKGKEALEKEEKNGKRRTERAEREKERLEKEVSREAQRFKKKGEEEEKKHKYG
Turning to B18, the Log2 enrichment ratio was -3.47 log2 in assay [1] and -3.79 log2 in assay [2].

B19: Index 62 (designed binder)
chain: GKLGEELREDAEKKGEEDMRRFERRIREIKRKLKFGYDFEQRKREATHKWIAFALEMIGDAFNFAQKLERALELFKKWNIYSEDDLRELKKRFEEAKEKLKKFADRIRDEGLKAVLLG
As to B19, the Log2 enrichment ratio was -2.65 log2 in assay [1] and -3.21 log2 in assay [2].

B20: Index 42 (designed binder)
chain: GQQEEQFIEDFKKEVLRAADDAKDDMEKRAEEFLKKDGDDNEKKRKILKWIADALEAIGDLFNAAQEAKRRAELYFKLGLLKKERKEEAEEEAEKAKEEASKKLHKAAREARIKMEKG
For the molecule B20, the Log2 enrichment ratio in assay [1] was -3.15 log2; in assay [2], -3.63 log2.

B21: Index 58 (designed binder)
chain: GEKAKKLEEYAREEIERALREGGDLMEEEREFGEKTELTTEWKHRAMAYWIAAALMIIGDGFNALQFIEEEGRKFIRKGEFARQKIEEHKERAKERLEKALKQAKKRGDELDRFARLG
B21: the Log2 enrichment ratio was -2.11 log2 in assay [1] and -2.36 log2 in assay [2].

B22: Index 55 (designed binder)
chain: GEEAEKLIKEAKDKFEDLREKAEELLYKMWLIRYLSSKDTKRGEIYTKKWIAIMLMMIGDAFNMALRARLYLEERRKRGEKHEEEAEEKERRARWEQEDAYKKAKKGAKRARLYDKLG
For the molecule B22, the Log2 enrichment ratio in assay [1] is -3.29 log2; in assay [2], -2.69 log2.

B23: Index 45 (designed binder)
chain: GYSLDDFLKLAKLLAELLKRFIRKEAERLRELKEWLLDTTLGRLILTLEWIAIELMIIGDIFNAKMLLDKFAKYAEWLGLMKEEEAKQAKKLAKLLLDEVKDEARKKADDGEKFAEEG
As to B23, the Log2 enrichment ratio in assay [1] was -3.17 log2; in assay [2] it was -2.44 log2.

B24: Index 56 (designed binder)
chain: GESAEKWRERLREKAGYWAEYAFWLADEAEKRAKIYSASSERRAEWTMRWIAIALAAIGDVFNEGQKADEKFDELKKQNKRSDDDLDDYKDKFKEEVEKALRKLLKAGDKIADLAEQG
In the case of B24, the Log2 enrichment ratio was -3.81 log2 in assay [1] and -3.49 log2 in assay [2].

B25: Index 52 (designed binder)
chain: GNDKEKFREDVKKKAKYALWKLKKLADEAKERALKFDPSEEMKREFTLEWIAWALEAIGDIFNAWLDGKKYADEAKKQGKARKEEAEETKKEATRIAKEAHEKASELARKILYHMLLG
As for B25, the Log2 enrichment ratio in assay [1] was -0.2 log2; in assay [2], -0.83 log2.

B26: Index 41 (designed binder)
chain: GEQEDKVKERAKRGALERAREMFEKMRKAIYLAELYINNDEGKTKLTDRWIAFALMMIGDIFNIALEARLEALKLVLKGLRSQEDAEKVKKLAEEAEREAAKRAAKLGDKMDEKEHEG
Regarding B26, the Log2 enrichment ratio in assay [1] was -2.39 log2; in assay [2] it was -2.17 log2.

B27: Index 54 (designed binder)
chain: GDKHEEAKEEAEKKFEKLRIEARLKAEWLKKAGKYGLQLQELWAKLSDYWIAFALEIIGDLFNFLEEHKEKIEKDLKKGEALDDRADDILKDLEKKAKEVSKHAMKLGREAQQFIELG
On to B27, for which the Log2 enrichment ratio in assay [1] was -2.24 log2; in assay [2] it was -3.22 log2.
